# Like-named read-outs stand apart in the source and are kept apart here. Where no end group is shown, it is not given here. [ ]: non-standard residue; d: D form. Cha = N[C@@H](CC1CCCCC1)C(=O)O; Orn = NCCC[C@H](N)C(=O)O
# T1: wild-type human PTHR (human, UniProt Q03431 27-593)
# T1 construct: whole, on cells; also called PTHR-WT; intact PTHR
# T1 sequence (looked up): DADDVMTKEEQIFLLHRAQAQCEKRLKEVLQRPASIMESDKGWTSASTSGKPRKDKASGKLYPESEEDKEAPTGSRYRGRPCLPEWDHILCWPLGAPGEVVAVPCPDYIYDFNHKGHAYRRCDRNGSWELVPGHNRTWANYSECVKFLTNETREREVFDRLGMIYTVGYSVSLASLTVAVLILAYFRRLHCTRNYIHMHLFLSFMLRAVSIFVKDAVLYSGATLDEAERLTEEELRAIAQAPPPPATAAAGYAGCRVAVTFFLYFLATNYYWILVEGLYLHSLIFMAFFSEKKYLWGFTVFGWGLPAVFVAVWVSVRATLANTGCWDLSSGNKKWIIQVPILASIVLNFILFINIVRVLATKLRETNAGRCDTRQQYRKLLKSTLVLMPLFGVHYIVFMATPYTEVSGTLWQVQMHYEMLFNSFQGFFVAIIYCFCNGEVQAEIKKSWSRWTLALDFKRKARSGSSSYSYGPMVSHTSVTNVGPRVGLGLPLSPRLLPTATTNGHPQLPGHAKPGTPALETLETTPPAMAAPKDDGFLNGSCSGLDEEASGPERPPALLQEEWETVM
# T2: rat PTHR endogenously expressed in ROS 17/2.8 cells (rat, UniProt P25961 27-591)
# T2 construct: whole, on cells; also called endogenous PTHR; PTHR in ROS 17/2.8 cells
# T2 sequence (looked up): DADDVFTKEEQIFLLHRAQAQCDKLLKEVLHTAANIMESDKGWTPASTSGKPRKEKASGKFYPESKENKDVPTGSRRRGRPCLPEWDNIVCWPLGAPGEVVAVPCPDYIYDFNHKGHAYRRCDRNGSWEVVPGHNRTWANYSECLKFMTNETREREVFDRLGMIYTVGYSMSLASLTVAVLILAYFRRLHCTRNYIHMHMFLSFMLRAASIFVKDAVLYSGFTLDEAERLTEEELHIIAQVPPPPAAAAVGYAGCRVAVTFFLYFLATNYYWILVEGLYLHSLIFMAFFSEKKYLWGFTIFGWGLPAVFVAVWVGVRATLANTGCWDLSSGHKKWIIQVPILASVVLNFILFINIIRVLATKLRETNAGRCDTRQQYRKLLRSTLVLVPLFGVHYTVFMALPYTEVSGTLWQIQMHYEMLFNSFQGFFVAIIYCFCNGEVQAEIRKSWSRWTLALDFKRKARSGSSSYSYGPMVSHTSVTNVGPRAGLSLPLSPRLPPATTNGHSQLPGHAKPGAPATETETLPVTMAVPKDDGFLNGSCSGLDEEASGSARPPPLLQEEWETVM
# Tests used:
# wild-type human PTHR [1] = molecular target: T1, wild-type human PTHR; assay: competition binding, HKRK-B7 cells, 125I-PTH(1-34) tracer
# PTHR-delNt (human) = PTHR-delNt (human) (UniProt Q03431); assay: competition binding, COS-7 membranes, 125I-[Aib1,3,M]PTH(1-15) tracer
# wild-type human PTHR [2] = molecular target: T1, wild-type human PTHR; assay: competition binding, HKRK-B7 cells, 125I-PTH(1-34) tracer; remark: listed apart in the source
# Summary of the method: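 Intact HKRK-B7 cells stably expressing hPTHR incubated 4 h at 15° C with ¹²⁵I-PTH(1-34) tracer and unlabeled peptide (3×10⁻⁹ to 1×10⁻⁵ M). Nonspecific binding defined with 1×10⁻⁶ M PTH(1-31)NH₂. Bound activity counted after lysis and expressed as % specific binding without competitor; values in nM, mean ± s.e.m.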
# [3] = molecular target: T2, rat PTHR endogenously expressed in ROS …; assay: competition binding, ROS 17/2.8 cells, 125I-PTH(1-34) tracer
# Method: Receptor binding—Binding to the wild-type human PTHR in intact HKRK-B7 cells and ROS 17/2.8 cells was assessed using ¹²⁵I-PTH(1-34) as a tracer radioligand, as described (Shimizu, M., (2001) Endocrinology 142:3068-3074). In brief, the cells in 24-well plates (about 500,000 cells per well) were incubated in binding buffer containing radioligand (about 100,000 cpm per well) with or without unlabeled peptide ligand (3×10⁻⁹ to 1×10⁻⁵ M) for four hours at 15° C. The binding mixture was then removed by aspiration, the cells were rinsed three times with binding buffer, lysed in 1 M NaOH, and the entire lysate was counted for gamma-irradiation in a gamma counter. Binding to PTHR-delNt in COS-7 cell membranes was assessed in 96-well, vacuum filtration plates (Multiscreen-Durapore HV, […], Millipore Corp., Millford, Mass.) using ¹²⁵I-[Aib^{1,3},M]PTH(1-15)NH₂ as a tracer radioligand, as described (Dean, T., (2006) Mol Endocrinol 20:931-942). In brief, cell membranes (20 μg/well) were incubated in membrane binding buffer containing radioligand (30,000 cpm/well) with or without unlabeled peptide ligand (3×10⁻⁹ to 1×10⁻⁵ M) for 90 minutes at 21° C. The plates were then subject to rapid vacuum filtration, the filters were washed once with buffer, detached from the plate and counted for gamma-irradiation in a gamma counter. Non-specific binding was defined as the binding observed in the presence of 1×10⁻⁶ M PTH(1-31)NH₂ for HKRK-B7 and ROS 17/2.8 cells, and 1×10⁻⁶ M [Aib^{1,3},M]PTH(1-15)NH₂ for PTHR-delNt. Specifically bound radioactivity was calculated as a percentage of the radioactivity specifically bound in the absence of competing ligand.
# Effects on cAMP and IP signaling—Selected analogs of [Ala¹,Arg¹⁹]hPTH(1-31)NH₂ with substitutions that markedly impaired binding to HKRK-B7 cells were assessed for their capacity to bind to the PTHR in ROS 17/2.8 cells and to stimulate cAMP-signaling responses in these cells. These bone-derived cells endogenously express the rat PTHR at a more physiological level than is found in HKRK-B7 cells (approximately 80,000 PTHRs per cell vs. 950,000 PTHRs per cell) and, have generally been found (data not shown) to yield closer correlations between PTH analog binding affinity and cAMP-signaling potency than do HKRK-B7 cells, presumably due to their lower PTHR expression level.
# [4] = molecular target: T2, rat PTHR endogenously expressed in ROS …; assay: cell-based or functional assay
# wild-type human PTHR [5] = molecular target: T1, wild-type human PTHR; assay: competition binding, HKRK-B7 cells, 125I-PTH(1-34) tracer
"fold reduction in binding affinity vs [Ala^1,Arg^19]PTH(1-31)NH2 (wild-type human PTHR [1])","fold reduction in binding vs [Ala^1,Arg^19]PTH(1-31)NH2 (wild-type human PTHR [1])",IC50 (PTHR-delNt (human)),"fold change in binding affinity vs [Ala^1,Arg^19]PTH(1-31)NH2 (PTHR-delNt (human))",IC50 (wild-type human PTHR [2]),IC50 [3],"cAMP EC50, ROS 17/2.8 cells [4]",fold difference of IC50 from PTH(1-31)NH2 (PTHR-delNt (human)),IC50 (wild-type human PTHR [5]),Binder
11 fold,~12 fold,283 nM,< 3 fold,436 nM,7.3 nM,0.83 nM,–,–,"AVSEIQLMHNLGKHLNSMRRVEW[Cha]RKKLQDV-NH2 (N-terminus assumed; SMILES CC[C@H](C)[C@H](NC(=O)[C@H](CCC(=O)O)NC(=O)[C@H](CO)NC(=O)[C@@H](NC(=O)[C@H](C)N)C(C)C)C(=O)N[C@@H](CCC(N)=O)C(=O)N[C@@H](CC(C)C)C(=O)N[C@@H](CCSC)C(=O)N[C@@H](Cc1c[nH]cn1)C(=O)N[C@@H](CC(N)=O)C(=O)N[C@@H](CC(C)C)C(=O)NCC(=O)N[C@@H](CCCCN)C(=O)N[C@@H](Cc1c[nH]cn1)C(=O)N[C@@H](CC(C)C)C(=O)N[C@@H](CC(N)=O)C(=O)N[C@@H](CO)C(=O)N[C@@H](CCSC)C(=O)N[C@@H](CCCNC(=N)N)C(=O)N[C@@H](CCCNC(=N)N)C(=O)N[C@H](C(=O)N[C@@H](CCC(=O)O)C(=O)N[C@@H](Cc1c[nH]c2ccccc12)C(=O)N[C@@H](CC1CCCCC1)C(=O)N[C@@H](CCCNC(=N)N)C(=O)N[C@@H](CCCCN)C(=O)N[C@@H](CCCCN)C(=O)N[C@@H](CC(C)C)C(=O)N[C@@H](CCC(N)=O)C(=O)N[C@@H](CC(=O)O)C(=O)N[C@H](C(N)=O)C(C)C)C(C)C) [[Ala^1,Arg^19]hPTH(1-31)NH2 Leu^24→Cha]"
120 fold,–,632 nM,< 3 fold,4740 nM,290 nM,7.5 nM,–,–,"AVSEIQLMHNLGKHLNSMR[Cha]VEWLRKKLQDV-NH2 (N-terminus assumed; SMILES CC[C@H](C)[C@H](NC(=O)[C@H](CCC(=O)O)NC(=O)[C@H](CO)NC(=O)[C@@H](NC(=O)[C@H](C)N)C(C)C)C(=O)N[C@@H](CCC(N)=O)C(=O)N[C@@H](CC(C)C)C(=O)N[C@@H](CCSC)C(=O)N[C@@H](Cc1c[nH]cn1)C(=O)N[C@@H](CC(N)=O)C(=O)N[C@@H](CC(C)C)C(=O)NCC(=O)N[C@@H](CCCCN)C(=O)N[C@@H](Cc1c[nH]cn1)C(=O)N[C@@H](CC(C)C)C(=O)N[C@@H](CC(N)=O)C(=O)N[C@@H](CO)C(=O)N[C@@H](CCSC)C(=O)N[C@@H](CCCNC(=N)N)C(=O)N[C@@H](CC1CCCCC1)C(=O)N[C@H](C(=O)N[C@@H](CCC(=O)O)C(=O)N[C@@H](Cc1c[nH]c2ccccc12)C(=O)N[C@@H](CC(C)C)C(=O)N[C@@H](CCCNC(=N)N)C(=O)N[C@@H](CCCCN)C(=O)N[C@@H](CCCCN)C(=O)N[C@@H](CC(C)C)C(=O)N[C@@H](CCC(N)=O)C(=O)N[C@@H](CC(=O)O)C(=O)N[C@H](C(N)=O)C(C)C)C(C)C, also called Cha^20 analog) [[Ala^1,Arg^19]hPTH(1-31)NH2 Arg^20→Cha]"
–,–,5530 nM,–,–,–,–,< 4 fold,> 10 µM,SVSEIQLMHNLGKHLNSME[Orn]VEWLRKKLQDV-NH2 (N-terminus assumed; SMILES CC[C@H](C)[C@H](NC(=O)[C@H](CCC(=O)O)NC(=O)[C@H](CO)NC(=O)[C@@H](NC(=O)[C@@H](N)CO)C(C)C)C(=O)N[C@@H](CCC(N)=O)C(=O)N[C@@H](CC(C)C)C(=O)N[C@@H](CCSC)C(=O)N[C@@H](Cc1c[nH]cn1)C(=O)N[C@@H](CC(N)=O)C(=O)N[C@@H](CC(C)C)C(=O)NCC(=O)N[C@@H](CCCCN)C(=O)N[C@@H](Cc1c[nH]cn1)C(=O)N[C@@H](CC(C)C)C(=O)N[C@@H](CC(N)=O)C(=O)N[C@@H](CO)C(=O)N[C@@H](CCSC)C(=O)N[C@@H](CCC(=O)O)C(=O)N[C@@H](CCCN)C(=O)N[C@H](C(=O)N[C@@H](CCC(=O)O)C(=O)N[C@@H](Cc1c[nH]c2ccccc12)C(=O)N[C@@H](CC(C)C)C(=O)N[C@@H](CCCNC(=N)N)C(=O)N[C@@H](CCCCN)C(=O)N[C@@H](CCCCN)C(=O)N[C@@H](CC(C)C)C(=O)N[C@@H](CCC(N)=O)C(=O)N[C@@H](CC(=O)O)C(=O)N[C@H](C(N)=O)C(C)C)C(C)C) [PTH(1-31)NH2 Arg^20→Orn]

# — US20100081612A1 (GENERAL HOSPITAL, published 2010)
